Source: patent US12577536B2, “Method for isolating ureteric bud tip cells” (KYOTO UNIVERSITY, priority 2019, dated 2026)

System: tip cell colonies
Assay: Reconstitution of iUB organoids from tip cell colonies
Type: cell-based, human
Conditions: organoid medium with Wnt3a conditioned medium and R-spondin 1 in place of CHIR99021
Method: Hydrogel was dissolved with Cell Recovery Solution (BD Biosciences) for 1 h at 4° C. to detach day 7 tip cell colonies. After washing with additional Cell Recovery Solution, the tip cell colonies were centrifuged at 500 g for 5 min at room temperature. Essential 6 medium containing 0.1 μM LDN193189, 100 ng/ml GDNF, 0.1 μM TTNPB, 200 ng/ml FGF8, 1 μM CHIR99021 or 10% Afamin/Wnt3a conditioned medium (MBL), 200 ng/ml R-spondin 1 (R&D systems), 50 ng/ml EGF, 200 ng/ml FGF1 and 10% Matrigel was applied to the tube including tip cell colonies. After pipetting gently with a wide-mouth micropipette (BMBio) not to break colonies, the suspension was distributed to low-attachment 35 mm dish (Sumitomo Bakelite) at 2 mL/dish. The medium was refreshed every 2 days. On day 4, each colony was placed onto one well of low-attachment 96-well plates in the same medium. After an additional 6 days, the tip region was separated from the reconstituted iUB organoid and treated with the same medium for 35 days.

B1: R-spondin 1: Wnt signaling activator (R&D systems) (protein, UniProt Q2MKA7 21-263, looked up)
R-spondin-1: SRGIKGKRQRRISAEGSQACAKGCELCSEVNGCLKCSPKLFILLERNDIRQVGVCLPSCPPGYFDARNPDMNKCIKCKIEHCEACFSHNFCTKCKEGLYLHKGRCYPACPEGSSAANGTMECSSPAQCEMSEWSPWGPCSKKQQLCGFRRGSEERTRRVLHAPVGDHAACSDTKETRRCTVRRVPCPEGQKRRKGGQGRRENANRNLARKESKEAGAGSRRRKGQQQQQQQGTVGPLTSAGPA
- reconstitution of iUB organoids from tip cell colonies: iUB organoids could be reconstituted from tip cell colonies derived from any iPS cell lines
